{"source": "the supplement of paper PMC12636428"}
{"tested_on": "Saccharomyces cerevisiae", "experiment": "transcriptional activation domain activity (GFP:mCherry ratio, weighted mean of sorted bins, harmonized to initial dataset scale) (arbitrary fluorescence ratio units); higher = stronger transcriptional activation", "details": "beta-estradiol 1 µM; induction time 4 h", "summary_of_the_method": "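Each value is an activation activity: the read-weighted mean of bin median fluorescence, averaged across barcodes, then mapped linearly to the initial dataset scale. The tiles, fused to an estradiol-inducible synthetic transcription factor, sat at the yeast URA3 locus in GFP-reporter diploids. Cells spent 4 hours at 30 °C in SC with 1 uM beta-estradiol before sorting into 8 GFP:mCherry bins, and tiles below 50 reads were removed.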"}
{"sequence": "AKILRELFLLYQPPEELIPSLQQWYLLVQACSGIVTSSDFGNTLFGIARLCLP", "transcriptional activation domain activity": 30500}
{"sequence": "LYYMECSFFRLIIRWIPHWLFLSVKADHVILPLPNHPVGAIIGPNLFCIFLHI", "transcriptional activation domain activity": 50900}
{"sequence": "VHLGVLFTLSIPYVRLWLIPRLFVCIFVRAFLFLLLFSGIVYPEFFFFFFFLR", "transcriptional activation domain activity": 40800}
{"sequence": "DSLSNSNDVLNNTPNSSTSMDWLDNVIYTNRFVSGDDGSNSKTKNLDSNMFSN", "transcriptional activation domain activity": 66900}
{"sequence": "DYCSFNSFPPSHFMSLYKNLGSFFLLSSFPPPPFFFVLLYLPASCLCFFCLFF", "transcriptional activation domain activity": 54500}
{"sequence": "KLLCVGRPFRASSTEVVVTMALLSMLRHLPTTRWKDSLKLLAWVLEQYIYRFT", "transcriptional activation domain activity": 51000}
{"sequence": "ALNWYFLGTTMYFLYGESVIYYFKHILLVDRIFLPLATHHRFISFMLYILGFV", "transcriptional activation domain activity": 66300}
{"sequence": "CYNLNLVFNWIIRCIISIFLVFMISFLPLFLQELVECGTWKAIWCLMKQFTSL", "transcriptional activation domain activity": 35400}
{"sequence": "AKKADAPAPAAPAKANKRKKAEESEAESEEEPAPAVKKPKVEQPKAAPKAAKA", "transcriptional activation domain activity": 26700}
{"sequence": "IENFLSPSFLEFIPHLANEYGFDYELVTYKWPTWLIHQKEKQRLIWGYKILFL", "transcriptional activation domain activity": 56800}
{"sequence": "VAEDAVVAEDAVAAVVDVDVNHVAAAAVVDVEDVEGAEDVEGVVDAAAHRVAA", "transcriptional activation domain activity": 16900}
{"sequence": "MYISLFITYLYTYILELCFDFLTIFIIYFHFFSASCMLHSISPLLFICFSFFQ", "transcriptional activation domain activity": 57700}
{"sequence": "LVRDGILYFFVYTYRNALYQVYVVFGLAAVATLTLNAQLVLNTFLFIIFYVLV", "transcriptional activation domain activity": 56900}
{"sequence": "FSWVELCLSVTWWFFPACLLLSDTLVLVYLTPGLDVLVPFSMIFVYCFLGLPP", "transcriptional activation domain activity": 52300}
{"sequence": "NQAQPSTSGGFGQPSAFGSATPSSSAFGGGAASTPTQPSAFGASTTPAAAPTA", "transcriptional activation domain activity": 8250}
{"sequence": "GKKKGKRGKGKGKRGRGKGRGEREGWQGKAAGKEGAGKKGAGEGEQGKGSRGK", "transcriptional activation domain activity": 44300}
{"sequence": "GGGSEERGGRGRQEGGKDREAGGRERGSAGEREETEGGTGAEGGGGGERRQGE", "transcriptional activation domain activity": 32300}
{"sequence": "GASVDIHVTYQSSVKEGDEVEIEGIAEKVGGSLAFTKVNIFRVEDGERGRPVA", "transcriptional activation domain activity": 36800}
{"sequence": "GSKTRSTTSRDRSVRNDDKKSTTSGRRSVVSGSKEERRRRSSKKSVPAASETA", "transcriptional activation domain activity": 34600}
{"sequence": "DETLAYIARRHNYTGKSLILPPTEITLRFFAHVARVMELSMADLLIALVYVRR", "transcriptional activation domain activity": 50100}
{"sequence": "ESPSQINDFIPQKLIIEPNTLELNGLTEETPHDLPKNTAKGRDEEDFPLDYFP", "transcriptional activation domain activity": 55200}
{"sequence": "KSKKRSRVDEEDEEEYGASSSKAKAKKDKEKPAKKAAAKGKEKAAKGKASAKG", "transcriptional activation domain activity": 26200}
{"sequence": "MCVGTCIYINIPGLHRCYLLLLHLRLSYHIPMYMFIGVPGLRFRVALLISSYF", "transcriptional activation domain activity": 53300}
{"sequence": "LVAFGMRFGGPTLLKLYFLPWMACHLIFALVPVIITLPMQWANHWIVALTYLH", "transcriptional activation domain activity": 57900}
{"sequence": "MIIIDIFLSIYMILSYLYLHLFIFHVHMNPSYFIYFLAFSVKEIFIVSWFFFI", "transcriptional activation domain activity": 57300}
{"sequence": "FTELEKHSNVSQFNTLDVSEGNQVINESASTNTSSALNCQSYTNNQDIMDILF", "transcriptional activation domain activity": 48800}
{"sequence": "VFFMPSMCSGYLWISLCYLSFWTNMREWRLKRKVVWFLCLFWVFMCCLLFYLT", "transcriptional activation domain activity": 34700}
{"sequence": "MILRAFFLLTVYFVCSPFFFLIIYLLFYDRPDSTLSWIWIWIHTFLPSLLFPS", "transcriptional activation domain activity": 42500}
{"sequence": "QSQAPARKKGAGGKEGKKGKGGKEGKEKVEKESKKKRKAEAEVVVGDEAAAAA", "transcriptional activation domain activity": 33800}
{"sequence": "MTNRLHIICHICVFYGYVLMFPAITSYYFILLCILILILHLFIFILAHFYKDR", "transcriptional activation domain activity": 37300}
{"sequence": "MALFRALPLKIRNLIYLKLLNVSPLWISPIWIITDYYKERPIPLLKGLSLFLV", "transcriptional activation domain activity": 45400}
{"sequence": "KLIYVRILGYLLHHMPSEAGLQQLVTEIVSFRTEEAFLKLGLLYFEHAIRLFR", "transcriptional activation domain activity": 36800}
{"sequence": "MIPLLSFYYYFYISTCKTELLFSPFIFYFLLFLYIYIKIYTYFLHTPFLLVFE", "transcriptional activation domain activity": 47700}
{"sequence": "EKTVEQPEELKETGGKEPRIERKLPLQYDHHQRKTRDNQMFQLAVVIYFLGKL", "transcriptional activation domain activity": 40300}
{"sequence": "SREGPAQSSCSSRVTEILKSSRDLKVGDVLVLGKDQRVPADVVLLKSFATEAS", "transcriptional activation domain activity": 18600}
{"sequence": "EDAGDDAAPSAKKANVSKKRKKADESDGENDKPVKTPKTKLKLTTKTPKEPSA", "transcriptional activation domain activity": 36100}
{"sequence": "FSFFHPLHFLPWLLYPSPLISLFFLSFFILFSFFVFFFSCPFFLSLFHIFFPV", "transcriptional activation domain activity": 33000}
{"sequence": "ATLHYISPYCPRFGRYHILRMLHCIGGLHVAANLWCYYWVWVYVLNEIILPQW", "transcriptional activation domain activity": 66400}
{"sequence": "MAIGLSACSILFLFSFTCVFFSFLSCLFLHPFFFLSFLFSLSLSLSLFFFFFA", "transcriptional activation domain activity": 66200}
{"sequence": "FGVKKVHHEIRSHVRLYYQSIGTSLLKGYERMDMVDIFKALRQCFLAIVLLFR", "transcriptional activation domain activity": 53600}
{"sequence": "DEDRRKRRRSRSRSPDREEESSRRRRDRSRSRSKDADRKKRKRDKSEERKARK", "transcriptional activation domain activity": 30900}
{"sequence": "ADAGGKDKGEKVAGDAEGAPAEGKAEVKGEARAETAVEGAEQQSNGKKRKAAS", "transcriptional activation domain activity": 34200}
{"sequence": "MSIVLLCSHIFYTLLGSRRFIAACFFWSLSVPSHLSHICLSCIFLLLSFFLLC", "transcriptional activation domain activity": 53900}
{"sequence": "GREANDAAQKQRKREGARAARDGNRSAKEGNGRQDAGSRKKAGDGEGGGAERG", "transcriptional activation domain activity": 20600}
{"sequence": "WLPNWLVPVMTAFSWMTWIAPKHRDLNILTGFNNGMGLLNFWPTWDWNVLLFT", "transcriptional activation domain activity": 54200}
{"sequence": "LNWYWLTTTMYFLYGESMLFYFKHIVLVGSVLTPLATHHRFISFTLYIFGFIF", "transcriptional activation domain activity": 42000}
{"sequence": "LLHILCFLMNLILTTLTLFVLLRDHLQLSCNVYTGLFFSCHTVSVAFSGVILL", "transcriptional activation domain activity": 66200}
{"sequence": "LLVRLRKEYYLALFIFWRVGYNVLLGLMLRSQSDWNLLVRFAKRYGFGQNAGK", "transcriptional activation domain activity": 48800}
{"sequence": "KAAAAPKKKKAGVSDEEEKEEEEAESTPVDEDPKPKTKKLAAAKKPAAAAAAK", "transcriptional activation domain activity": 33700}
{"sequence": "MLLSIWCHHFTFLFFFFFFFDHRFFCFFYSHLFYAVSYSFLLLLLLLYELLLV", "transcriptional activation domain activity": 47100}
{"sequence": "LREKGGSQQQQHQQQQQQQQQQQQQQQQQSLDTLLHHYQSLLSKSDNAIAFDD", "transcriptional activation domain activity": 26800}
{"sequence": "MLFARLHPVADETLIPFFCFWPSRLFVVLLVSFLHLIILFLSCFFFNCFLLFF", "transcriptional activation domain activity": 50300}
{"sequence": "HHLVITHVILFCLITFRCFTVIVRSIYERWHIKSAVIVLDLGSSWGLAANVPW", "transcriptional activation domain activity": 43600}
{"sequence": "MPNAGIWCARWFIPLLFLPLPSASPYFLTVFIFSLIVQARPCFYCILMLTALF", "transcriptional activation domain activity": 58200}
{"sequence": "TGTEQKKGIGGRRRRSKQASKQGSRPVCGHACACVCLCVPCLSCVCVSVLHLL", "transcriptional activation domain activity": 67800}
{"sequence": "STTKSICYVLRHLMITYVFYLSATGIDDLTVLIGNHSHNMIRTIVRSALWISY", "transcriptional activation domain activity": 39900}
{"sequence": "NVSDAPRIEPLPSLNDDDIEKILQPNDIFTTDRTDASTTSSTAIEDIINPSLD", "transcriptional activation domain activity": 61300}
{"sequence": "ASEKKEASQRPPPAVEKKTVPKPSSKPENRPGPSKPVVPKADSKKEAPKPAPS", "transcriptional activation domain activity": 9920}
{"sequence": "KDPWHIKALVAFVWILDVAHTILISCFVYTLTIVYYGRAQELLKFICLYILIL", "transcriptional activation domain activity": 45100}
{"sequence": "MDLVILMVYLNNNNNILIIIIMISTLIIHQLVQLIYLNLWLGCILWKTVLCSG", "transcriptional activation domain activity": 42900}
{"sequence": "RASEASVGTEGATDIPGDEKKKKRAPRKKPGEEENEAGRGKGRKRKGTNESSA", "transcriptional activation domain activity": 36200}
{"sequence": "GKKDQEALKEGESSSESASASASKSSSSTKSSKGSKSSSAAAAEASDDGKPKK", "transcriptional activation domain activity": 38600}
{"sequence": "MSLLMRVLCFCALGRPDLEDHWKSLQSEKAFEIVRTRVSSILDNIVTTAGVLL", "transcriptional activation domain activity": 60400}
{"sequence": "MVFSFLLDILAGILYYYLVLGSHILASCFDYRWFYFFFFFFVLFFSLLFSVFL", "transcriptional activation domain activity": 61900}
{"sequence": "YGVHLLARFAWWFPSMSAIIAKLEGTINKLHILSHKELCQIIHNLNWLLYVGL", "transcriptional activation domain activity": 71400}
{"sequence": "AKDEGEEEEDGSTSLNGTGKGTGTGKTHRGARGSKKGKKDGNETTSKAKGDGV", "transcriptional activation domain activity": 29500}
{"sequence": "MFFFLLLFIIVMYGCLVCEVIHTSFVGLIMVSTLMLNAFSCFMSFTYFLFFLF", "transcriptional activation domain activity": 59000}
{"sequence": "VKPRPLPLPVLIAKALREKGLVYFFRSVRVSGSGTAEVVRGKWYMNFLPTLAR", "transcriptional activation domain activity": 73200}
{"sequence": "ARGGEKKRREPGRGKRRTGGEERGGRRKTRRANAGETGGERRPRGATPGRKPA", "transcriptional activation domain activity": 38500}
{"sequence": "FRCLFLLFLLFSLICCRAISLQKHCLCLTYASSTALFVIVFILLLFWYLIIIT", "transcriptional activation domain activity": 76100}
{"sequence": "MFCLRSWLPLLFIPTSASPVFIFLFFVCTYFLNRPCVYCSFLLLILFLTSCNW", "transcriptional activation domain activity": 30800}
{"sequence": "SRLDAIEEEEEDLAAKNEGSTSNIEVDEIDIKSRDLKVGDIVKLGKNQRVPAD", "transcriptional activation domain activity": 39600}
{"sequence": "MDGDERPRKRARLACTNCNARRVKCDVTDRQPCRNCEIAHAVCETRESKRGKH", "transcriptional activation domain activity": 9400}
{"sequence": "WLAHSKKKTCDVCKHPYSFTKVYATDMPTRLPPVLLLRRVAQQSFFAMIFAVR", "transcriptional activation domain activity": 35900}
